Legend:
[1] = Effect of PRT6 administration on blood serum testosterone level (R&D Systems Testosterone Immunoassay); format: in vivo, Balb/C mice
Protocol: Two groups of Balb/C mice were used: • 3-4 week-old male Balb/C—Negative control for testosterone—18 mice • 7-8 week-old male Balb/C mice—18 mice
Each group was divided into 3 sub-groups (6 mice each). Each group was injected every day for a 4 day-period with 200 μl of one of the following: • 4% DMSO in double-distilled water (DDW) • 0.5 μg/kg of PRT6 (diluted in DDW) • 5 μg/kg of PRT6 (diluted in DDW)
After 4 days, blood serum was extracted from the mice and tested for testosterone levels. Testosterone measurement was done using the R&D Systems Testosterone Immunoassay (R&D Systems Catalog Number KGE010). This assay is based on the competitive binding technique. A monoclonal antibody specific for testosterone binds to the goat anti-mouse antibody coated onto the microplate. Following a wash to remove excess monoclonal antibody, testosterone present in the sample competes with a fixed amount of horseradish peroxidase (HRP)-labeled testosterone for sites on the monoclonal antibody. This is followed by another wash to remove excess conjugate and unbound sample. A substrate solution is added to the wells to determine the bound enzyme activity. Color development is stopped, and absorbance is read at 450 nm. The intensity of the color is inversely proportional to the concentration of testosterone in the sample.

[2] = IPGTT in mice treated with streptozotocyn (STZ), after 4-5 weeks of peptide treatment; format: in vivo, C57B1/6 mice; details: STZ-treated C57B1/6 male mice; PRT8 100 μg/mice; sbPRT8 20, 100 or 300 μg/mice; 4 or 5 weeks of treatment; sbPRT8 compared with PRT8
Text: In the following experiments, a sbPRT8 peptide blocked with an acetyl moiety at the N-terminal end and an amide moiety (NH2) at the C-terminal end has been employed. The effect of sbPRT8 administration on glucose levels was examined and compared to the effect obtained with PRT8 in mice treated with streptozocin (STZ). As known in the art, STZ is a chemical compound that is particularly toxic to the insulin-producing beta cells of the pancreas in mammals. It is used in medicine for treating certain cancers of the Islets of Langerhans and used in medical research to produce an animal model for Type 1 diabetes as well as Type 2 diabetes.
C57B1/6 males mice were purchased from Harlan Laboratories Ltd., Jerusalem, Israel, After 7 days of rest, mice were IP injected with 50 mg/kg STZ for 4 days. Five days after STZ injection, mice were treated as follows: • Group A (control)—100 μg/mice of PRT8 (control) • Group B (treatment)—20 μg/mice of sbPRT8 (treatment 1) • Group C (control)—100 μg/mice of sbPRT8 (treatment 2)
After 5 weeks of treatment mice were starved for food only for 12 h and then were IP injected with […] of glucose solution (IPGTT). The level of glucose in mice blood was measured with Accucheck glucometer (Roche) at t=0, 15, 30, 60, 90 and 120 minutes following glucose injection.
C57B1/6 males mice were purchased from Harlan Laboratories Ltd., Jerusalem, Israel. After 7 days of rest, mice were IP injected with 50 mg/kg STZ for 4 days. Five days after STZ injection, mice were treated as follows: • Group A (control)—100 μg/mice of PRT8 (control) • Group B (treatment)—100 μg/mice of sbPRT8 (treatment 1) • Group C (control)—300 μg/mice of sbPRT8 (treatment 2)
After 4 weeks of treatment mice were starved for food only for 12 h and then were IP injected with […] of glucose solution (IPGTT). The level of glucose in mice blood was measured with Accucheck glucometer (Roche) at t=0, 15, 30, 60, 90 and 120 minutes following glucose injection.

[3] = Effect of PRT8 administration on glucose levels after glucose injection in starved mice; format: in vivo, C57B1 mice; details: 1 μg/kg or 10 μg/kg PRT8
Protocol: All the mice were injected with PRT8 (or saline) on day 1. The first group was starved on day 2 and checked for blood glucose levels (using an Accu-Chek®Performa device, Roche Diagnostics) on day three. The second group was starved and checked for blood glucose levels three days after injection. Starvation was done overnight (the night before glucose injection), and the next day 2 mg/kg of glucose was injected to each mouse. A time course analysis of glucose levels was performed with glucose levels checked at t=0, 30, 60 and 120 minutes following glucose injection.

insulin receptors = assay: Levels of insulin receptors in skeletal muscle of mice treated with PRT5; format: in vivo; details: data not shown
[4] = Effect of PRT5 administration on glucose levels after glucose injection in starved mice; format: in vivo, C57B1 mice; details: starting 2 days and up to 4 days after injection; 2 mg/kg glucose after overnight starvation
Protocol: The mice were divided into 4 groups. The first group was starved and checked for blood glucose levels (using an Accu-Chek® Performa device, Roche Diagnostics) one day after injection; the second group—two days after injection, the third group—three days after injection and the fourth group—four days after injection. Starvation was done overnight (the night before glucose injection), and the next day 2 mg/kg of glucose was injected to each mouse. A time course analysis of glucose levels was performed with glucose levels checked at t=0, 30, 90, 120, 150 and 240 minutes.

p53 = assay: Induction of p53 expression by PRT7 (data not shown)

PRT6: novel chemokine-like secreted polypeptide from human cDNA libraries, amino acid sequence SEQ. ID. NO. 2 (MPPFSVGLVVVVNVVCLMLYESTTILRLYGIILFMRDLKLEVEDAKITIALALRNS; listed as Homo sapiens)
testosterone levels in blood serum ([1]; 0.5 μg/kg or 5 μg/kg PRT6 daily for 4 days, male Balb/C): significant increase | effect on testosterone levels of 5 μg/kg compared with 0.5 μg/kg ([1]; 5 μg/kg vs 0.5 μg/kg PRT6, daily for 4 days): much more pronounced

sbPRT8: shortened C-terminal fragment of PRT8, sequence KPETCPGLLV SLYPA (KPETCPGLLVSLYPA; listed as Homo sapiens)
reduction of blood glucose level (IPGTT) [2]: very significant improvement

PRT8 N-ter: PRT8 fragment, sequence SHLFGSFAWN FLLSS (SHLFGSFAWNFLLSS; listed as Homo sapiens)
reduction of blood glucose level (IPGTT) [2]: no significant blood glucose reduction

PRT8 C-ter: PRT8 fragment, sequence LLVSLYPA (listed as Homo sapiens)
reduction of blood glucose level (IPGTT) [2]: no significant blood glucose reduction

B1: PRT8: novel chemokine-like secreted polypeptide from human cDNA libraries, amino acid sequence SEQ. ID. NO. 4; full length PRT8 peptide (protein, listed as Homo sapiens)
chain: MLVFLKLWPQCLFFALTFFLRNCIYFKDFLSHLFGSFAWNFLLSSRSMDPTSCWTAPIWRSHRPLNSAPVSESPNYPLFTWSLKPETCPGLLVSLYPA
reduction of blood glucose level (IPGTT) [2]: significant reduction | glucose levels compared with mice administered saline ([3]; starting 2 days after administration, 2 mg/kg glucose after overnight starvation): significantly lower | glucose-lowering effect three days following injection compared with two days ([3]; three days following PRT8 injection): more evident

B2: PRT5: novel chemokine-like secreted polypeptide from human cDNA libraries, amino acid sequence SEQ. ID. NO. 1 (protein, listed as Homo sapiens)
chain: MKPMERWWSRALFTTCPVGPSGCAAGLLWPRNTDARSPLHSQTLWVCSWAALAQKHRCTVTPAQPAP
levels of insulin receptors in skeletal muscle (insulin receptors): capable of increasing the levels of insulin receptors | glucose levels compared with mice administered saline [4]: significantly lower

B3: PRT7: novel chemokine-like secreted polypeptide from human cDNA libraries, amino acid sequence SEQ. ID. NO. 3 (protein, listed as Homo sapiens)
chain: MGMIVPPSLAAAGGASTTPRLHALRLTSLLHQHLDLCLHPSPLPTPPSAPCLSGLVPPDSSLSVLDTLQV
expression of p53 (p53): can induce the expression of p53
